Results as given in the RNAGym collection of RNA variant scans (doi:10.1073/pnas.2313332121).

B1: TPR t1 (parent)
chain: GACCAAUCUGCCCUCAGAGCUCGAGAACAUCUUCGGAUGCAGAGGAGGCAGGCUUCGGUGGCGCGAUAGCGCCAACGUCCUCAACCUCCAAUGCAUCCCACCACAUGAUGAUGCCUGAAGAGCCUUGGUUUUUUG

Variants of: B1
Test: polymerase ribozyme fitness, log enrichment relative to wild type (log ratio); higher = more active; in vitro selection for triplet polymerase activity
How it was run: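 The heterodimeric triplet polymerase ribozyme's subunits were each mutagenized into PCR-built libraries and transcribed. Every library was selected once, in triplicate, by annealing with a biotinylated primer, the partner subunit and triplets, incubating frozen at −7 °C, gel-excising extended constructs, capturing on streptavidin beads and running RT-PCR. Input and output libraries were Illumina-sequenced, with genotypes kept only at ≥10 input reads and ≥1 read per output. Fitness, from inverse-variance-weighted replicate averages, is the base-2 logarithm of genotype enrichment over wild-type enrichment.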
In the case of GACCAAUCUGCCCUCAGAGCUCGAGAACAUCUUCGGAUGGAGAGGAGGCAGGCUUCGGUGGCGCGAUACCGUCAACGUCCUCAACCUCAAAUGCAUCCCACCACAUGAUGAUGCCUGAAGAGCCUUGGUUUUUUG [C40G G69C C72U C89A], the “polymerase ribozyme fitness (log ratio)” value is reported as -3.57.
In the case of GACCAAUCUGCCCUCAGAGCUCGAGAACAUCUUCGGAUGCAGAGGAGGCAGGCUUCGGUGGCGCGAUAGCGCCAACGUCCUCAACCUCCAAUGAAUCCCACCACAUGAUGAUGCCUGAAGAGCCUUGGGUUUUUG [C94A U129G], the “polymerase ribozyme fitness (log ratio)” value is reported as -1.07.
With GACCACUCUGCCCUCAGAGCUCGAGAACAUCUUCGGAUGCAGAGGAGGCAGGCUUCGGUGACGCGAUAGCGCCAACGUCCUCAACCUCCAAUGCAUCCCACCACAUGAUGAUGCCUGAAGAGCCUUGGUUUUUUG [A6C G61A] the “polymerase ribozyme fitness (log ratio)” value was -0.848.
With GACCAAUCUGCCCUCAGAGCUCGAGAACAUCUUCGGAUGCAGAGGAGGCAGGCUUCGGUGGCGCGAUAGCGACAACGUCCUCAACCUCCAAUGCAUCCCACAACAUGAUGAUGCCUGAAGAGCCUUGGUUUUUUG [C72A C102A] the “polymerase ribozyme fitness (log ratio)” value was -1.51.
With GACCAAUCUGCCCUCAGAGCUCGAGAACAUCUUCGGAUGCAGAGGAGGCAGGCUUCGGUGGCGCGAUAGCGCCAACGUCCUCAGACUCCAAUGCAUCCCACCACAUGAUGAUGCCUGAAGAGCCUUUGUUUUUUG [A84G C85A G127U] the “polymerase ribozyme fitness (log ratio)” value was -5.16.
With GACCAAUCUGCUCUCAGAGCUCGAGAACAUCUUCGGAUGCAGAGGAGGCAGGCUUCGGUGGCGCGAUAGCGCCAACGUCCUUAACCUCCAAUGCAUCCCACCACAUGAUGAUGCCUGAAGAGCCUUGGUUUUUUG [C12U C82U] the “polymerase ribozyme fitness (log ratio)” value was 0.282.
For GACCAAUCUGCCCUCAGAGCACGAGAACAUCUUCGGAUGCAGAGGAGGCGGGCUUCGGUGGCGCGAUAGCGUCAACGUCCUCAACCUCCAAUGCGUCCCACCACCUGAUGAUGCCUGAAGAGCCUUGGUUUUUUG [U21A A50G C72U A95G A105C], the “polymerase ribozyme fitness (log ratio)” value was -2.73.
With GACCAAUCUGCCCUCAGAGCUCGAGAACAUCUUCGGAUGCAGAUGAGGCAGGCUUCGGUGGCGCGAUACCGCCAACGUCCUCAACCUCCAAUGCAUCCCACCACAUGAUGAUGCCUGAAGGGCCUUGGUUUUUUG [G44U G69C A121G] the “polymerase ribozyme fitness (log ratio)” value was 0.0622.
In the case of GACCAAUCUGCCCUCAGAGCUCGAGAACAUCUUCGGAUGCAGAGGAGCUAGGCUUCGGUGGCGCGAUAGCCCCAACGUCCUCAACCUCCAAUGCAUCCCACAACAUGAUGAUGCCUGAAGAGCCUUGGUUUUUUG [G48C C49U G71C C102A], the “polymerase ribozyme fitness (log ratio)” value is reported as -4.66.
In the case of GAUCAAUCUGCCCUCAGAGCUCGAGAACAUCUUCGGAUGCAGAGGAGGCAGGCUUCUGUGGCGCGAUAACGCCAACGUCCUCAACCUCCAAUGCAUCCCACCACAUGAUGAUGCCUGAAGAGCCUUGGUUUUUUG [C3U G57U G69A], the “polymerase ribozyme fitness (log ratio)” value is reported as -3.04.
In the case of GACCAAUCUGCCCUCAGAGCUCGAGAACAUCUUCGGAUGCAGAGGAGGCAGGUUUCGGUGGCGCGAUAGCGACAACGUCCUCAACCUCCACUGGAUCCCAACACAUGAUGAUGCCUGAAGAGCCUUGGUUUUUUG [C53U C72A A91C C94G C101A], the “polymerase ribozyme fitness (log ratio)” value is reported as -4.4.
For GACCAAUCUGCCCUCAGAGCUCGAGAACAUCUUCGGAUGCAGAGGAGGCAGGGUUCGGUGGCGCGAUAGCGCCAACGCCCACAACCUCCAAUGCAUCCCAACACAUGAUGAUGCCUGAACCGCCUUGGUUUUUUG [C53G U78C U81A C101A G120C A121C], the “polymerase ribozyme fitness (log ratio)” value was -2.66.
For GACCAAUCUGCCCUUAGAGCUCGAGAACAUCUUCGGAUGCAGAGGAGGCAGGCUUCGGUGGCGCGAUAGCGCCAAAGUCCUCAACCACCAAUGCAUCCCAGCACAUGAUGAUGCCUGAAGAGCCUUGGUUUUUUG [C15U C76A U87A C101G], the “polymerase ribozyme fitness (log ratio)” value was -4.
With GACCAAUCUGCCCUCAGAGCUCGAGAACAUCUUCGGAUGCAGAGGAGGCAGGCUUCGGUGGCGCGAUAGCGGCAACGUCCUCAACCUCCAAUGCAUCCCACCACAUGAUGAUGCCUGAAGAAGCUUGGUUUUUUG [C72G G122A C123G] the “polymerase ribozyme fitness (log ratio)” value was 1.99.
With GACCAAUCUGGCCUCAGAGCUCAAGAACAUCUUCGGAUGCAGAGGAGGCAGGCUUCGGUGGCGCGAUAGCGCCAACGUCCUCAACCUCCAAUGCAUCCCACCACAUGAUGAUGCCUGAAGAGCCUUGGUUUUUUG [C11G G23A] the “polymerase ribozyme fitness (log ratio)” value was -5.25.
With GACCAAUCUGCCCUCAGAGCUCGAGAACAUCUUCGGAUGCAGAGGAGGCAGGCUUCGGUGGCGCGAUAGCGCCAACGUCCUCAACCUCCAAUGCAUCCCACCACCUGAUGACGCCUGAAGAGCCUUGGUUUUUUG [A105C U112C] the “polymerase ribozyme fitness (log ratio)” value was 0.139.
With GACCAAUCUACCCUCAGAGCUCGAGAACAUUUUCGGAUGCAGAGGAGGCAGGCUUCGGUGCCGCGAUAGCGCCAACGUCCUAAACCUCCAAUGGAUCCCACCACAUGAUGAUGCCUGAAGAGCUUUGGUUUUUUG [G10A C31U G61C C82A C94G C124U] the “polymerase ribozyme fitness (log ratio)” value was -5.7.
For GACCAAUCUGCCCUCAGAGCUCGAGAACAUCUUCGGAUGCAGGGGAGGCAGGAUUCGGUGGCGCGAUAGCGCCAACGUCCUCAACCUCCAAUGCAUCCCACCACAUGAAGAUGCCUGAGGAGCCUUGGUUUUUUG [A43G C53A U109A A119G], the “polymerase ribozyme fitness (log ratio)” value was -5.89.
For GACCAAUCUGCCUUCAGAGCUCGAGAACAUCUUCGGAUGCAGACGAGGCAGGCUUCGGUGGCGCGAUAGCGCCCACGUCCUCAACCUCCAAUGCAUCCCACCACAUGAUGCUGCCUGAAGAGCCUUGGUUUUUUG [C13U G44C A74C A111C], the “polymerase ribozyme fitness (log ratio)” value was -0.273.
In the case of GACCGAUCUGCCCUCAGAGCUCGAGAACAUCUUCGGAUGCAGAGGAGGGAGGCUUCGGUGGCGCGAUAGCGCCAACGUCCUCAACCUCCAAUGCAUCCCACCACAUGAUGAUGCCGCAAGAGCCUUGGUUUUUUG [A5G C49G U116G G117C], the “polymerase ribozyme fitness (log ratio)” value is reported as -3.05.
In the case of GACCAAUCUGCCCUCAGAGCUCGAGAACAUCUUCGGAUGCAGAGGAGGCAGGCUUCGGUGGCGCGAUAGCGUCAACGUCCUCAACCUCCAAUGCAUCCCACCACAUGAUGAAGCCUGAACAGCCUUGGUUUUUUG [C72U U112A G120C], the “polymerase ribozyme fitness (log ratio)” value is reported as 0.504.
